Measured values as given in US10695406B2, “Modulation of cellular stress using a B-cell oxidative and/or endoplasmic reticulum stress inhibitor and a targeting agent” (THE UNIVERSITY OF QUEENSLAND, priority 2014, dated 2020).

B1: MPBS-50: IL-22-GLP-1R ligand fusion protein, sequence in FIG. 36, made by Novo Nordisk A/S (protein)
chain: EGTFTSDVSSYLEGQAAKEFIAWLVKGRHGEGTFTSDVSSYLEGQAAKEFIAWLVKGRAPISSHCRLDKSNFQQPYITNRTFMLAKEASLADNNTDVRLIGEKLFHGVSMSERCYLMKQVLNFTLEEVLFPQSDRFQPYMQEVVPFLARLSNRLSTCHIEGDDLHIQRNVQKLKDTVKKLGESGEIKAIGELDLLFMSLRNACIGGSHHHHHH
modifications: MPBS-50 - fusion protein comrpsing a GLP-1 ligand and IL-22
B2: MPBS-51: IL-22-GLP-1R ligand fusion protein, sequence in FIG. 36, made by Novo Nordisk A/S (protein)
chain: EGTFTSDVSSYLEGQAAKEFIAWLVKGRGGGSSSGGGSSSGGGSSSGGGSSSGAPISSHCRLDKSNFQQPYITNRTFMLAKEASLADNNTDVRLIGEKLFHGVSMSERCYLMKQVLNFTLEEVLFPQSDRFQPYMQEWPFLARLSNRLSTCHIEGDDLHIQRNVQKLKDTVKKLGESGEIKAIGELDLLFMSLRNACIGGSHHHHHH
modifications: MPBS-51 - fusion protein comrpsing a GLP-1 ligand and IL-22
B3: MPBS-52: IL-22-GLP-1R ligand fusion protein, sequence in FIG. 36, made by Novo Nordisk A/S (protein)
chain: DLSKQMEEEAVRLFIEWLKNGGPSSGAPPPSGGSSSGGGSSSGGGSSSGGGSSSGAPISSHCRLDKSNFQQPYITNRTFMLAKEASLADNNTDVRLIGEKLFHGVSMSERCYLMKQVLNFTLEEVLFPQSDRFQPYMQEVVPFLARLSNRLSTCHIEGDDLHIQRNVQKLKDTVKKLGESGEIKAIGELDLLFMSLRNACIGGSHHHHHH
modifications: MPBS-52 - fusion protein comrpsing a GLP-1 ligand and IL-22

Legend:
Murine MIN6N8 cells = assay: ERAI-sXBP1 reporter ER stress in MIN6N8 cells with 0.5 mM palmitate; type: cell-based; conditions: for ER stress caused by the protein alone: 15.4 nM, no palmitate; for ER stress caused by the protein alone / protection from palmitate-induced ER stress: 24 hours; for protection from palmitate-induced ER stress: co-treated with 0.5 mM palmitate, increasing concentrations; for in vitro efficacy for suppression of ER and oxidative stress (conclusion): murine and human cells
Description: (§1) Cell culture: Murine MIN6N8 cells were tested negative for mycoplasma. Cells were routinely cultured in phenol-red free DMEM (Life Technologies) containing 25 mM glucose (3.4 g/L sodium bicarbonate, 50 U/mL penicillin and streptomycin, 71.5 μM β-mercaptoethanol and 10% heat inactivated fetal bovine serum) and transferred to DMEM as above with 5.5 mM glucose 48 h prior to experimentation. Human LS174T cells were cultured in DMEM containing 10% heat-inactivated fetal bovine serum, 50 U mL^−1 penicillin and streptomycin.
ER Stress Measurement: MIN6N8 cells were transfected with the ERAI reporter plasmid (F-XBP1ΔDBD-venus, using Lipofectamine 2000 according to the manufacturer's instructions. For ERAI there was negligible fluorescence in the absence of ER stressors, but upon induction of ER stress, splicing of XBP1 mRNA by IRE1a results in the translation of Venus but not an active form of XBP1. Fluorescence was measured (excitation: 485 nm; emission: 520 nm) using a POLARstar Omega plate reader and cells were treated 48 h after transfection. […] After 24 h, ERAI-sXBP1 GFP reporter fluorescence was measured.

[1] = Clearance of IL-22 and IL-22 fusion proteins from serum; type: in vivo, C57BL/6 mice; conditions: 256 ng/g human IL-22 or molar equivalents, i.p.
Description: (§2) Targeting to IL-22 to pancreas: Non-obese male C57BL/6 at 6-8 weeks of age. Each IL-22-GLP-1R ligand fusion protein or hIL-22 was administered i.p. at 256 ng/g of IL-22 and the molar equivalents for the individual fusion proteins (n=3 per regimen). IL-22-ScaB1 was administered at […]. Control mice received a PBS control i.p. injection only.
Serum concentrations of IL-22 and the IL-22-GLP-1R ligand fusion proteins were determined using a human IL-22 double-determinant ELISA (Biolegend; 434505) against a standard curve for the individual fusion proteins.

[2] = test system: mice with high fat diet induced obesity; assay: Dose-finding efficacy study (IPGTT) in mice on a high fat diet for 27 weeks; type: in vivo, C57BL/6 male mice
Description: C57BL/6 male mice from 6-8 weeks of age were fed a high fat diet containing 46% of available energy as saturated fat, 34% carbohydrate, 20% protein (Speciality feeds, SF04-027) for 27 weeks and treated as follows:
IL-22-GLP-1R ligand fusion protein or IL-22 alone were administered twice weekly i.p. at the following doses: 1, 4, 16, 64 and 256 ng/g of IL-22 (0.12-15.4 nmoles/g) and the molar equivalents for IL-22-GLP-1 fusion proteins (n=3 per regimen, except for the lowest dose where n=2); control mice received PBS control only. A fasted Intraperitoneal glucose tolerance tests (IPGTT) was performed (2 g kg-i glucose) on day 14 when the experiment was terminated (tissues were not kept for analysis). Body weight was recorded on days 0, 5, 10 and 13.

Human LS174T cells = assay: Oxidative stress (nitrite, Griess assay) in LS174T cells with 0.5 mM palmitate; type: cell-based; conditions: 2 h prior to 0.5 mM palmitate for 30 min
Description: as §1
The Griess Reagent Kit for Nitrite Determination was performed according to the manufacturer's instructions (Molecular Probes) to assess the intracellular levels of nitrite (the stable metabolite of nitric oxide) using lysates of β-cells prepared in RIPA buffer (150 mM NaCl, 1% NP40, 0.5% sodium deoxycholate, 0.1% SDS, 50 mM Tris, pH 7.5).

STAT3 phosphorylation = assay: pStat3 staining in pancreatic islets vs liver, intestine and skin; type: in vivo, C57BL/6 mice; conditions: for pStat3 ratio pancreatic islets vs intestine, fold change relative to human IL-22 / pStat3 ratio pancreatic islets vs liver, fold change relative to human IL-22 / pStat3 ratio pancreatic islets vs skin, fold change relative to human IL-22: molar equivalent of 256 ng/g IL-22, 30 min
Description: as §2
To assess in vivo activation of the IL-22 receptor signaling pathway, after 30 min the mice were sacrificed and the following tissues were snap frozen and sections were prepared for each mouse: pancreas, skin (ear, tail), colon (rolled), and liver. Sections were stained by immunofluorescence for phosphorylated STAT3 using the Phospho-Stat3 (Tyr705) (D3A7) antibody.

Row | Molecule | ER stress caused by the protein alone (Murine MIN6N8 cells) | fold more protein required for the same effect as recombinant mouse IL-22 in reducing ER stress (Murine MIN6N8 cells; murine MIN6N8 cells, 0.5 mM palmitate, 24 h) [fold] | clearance / serum concentration over the first 2 hours [1] | body weight changes during treatment ([2]; days 0, 5, 10 and 13) | mean reduction in the increased AUC of the IPGTT of HFD vs normal chow fed control mice ([2]; doses >0.96 nmoles/g, two-week therapy) [%] | efficacy in IPGTT below 0.96 nmoles/g ([2]; two lowest doses) | protection from palmitate-induced oxidative stress (nitrite production) (Human LS174T cells) | pStat3 ratio pancreatic islets vs intestine, fold change relative to human IL-22 (STAT3 phosphorylation) | pStat3 ratio pancreatic islets vs liver, fold change relative to human IL-22 (STAT3 phosphorylation) | pStat3 ratio pancreatic islets vs skin, fold change relative to human IL-22 (STAT3 phosphorylation) | protection from palmitate-induced ER stress (Murine MIN6N8 cells) | in vitro efficacy for suppression of ER and oxidative stress (conclusion) (Murine MIN6N8 cells) | STAT3 phosphorylation in tissues in vivo (STAT3 phosphorylation; 30 min after administration)
1 | human IL-22: recombinant human IL-22 | did not cause ER stress | ~16 | cleared slightly more slowly | little change in body weight | > 50 | diminished substantially | – | – | – | – | – | – | –
2 | B1 | did not cause ER stress | – | cleared with similar kinetics to recombinant human IL-22 | – | – | – | inhibited oxidative stress (nitrite production) but only toward the highest end of the concentration range used | not greater than for native human IL-22 | not greater than for native human IL-22 | 45 fold | inhibited ER stress in a dose dependent manner at a similar efficacy to a molar equivalent concentration of human IL-22 | have retained in vitro efficacy | –
3 | B2 | did not cause ER stress | – | lower and somewhat more extended/later peak concentration | – | – | – | did not effectively suppress oxidative stress at any of the concentrations tested | not greater than for native human IL-22 | not greater than for native human IL-22 | 113 fold | did not effectively suppress ER stress at any of the concentrations tested | appears inactive in-vitro | did induce STAT3 phosphorylation in the pancreas as well as liver and gut
4 | B3 | did not cause ER stress | – | lower and somewhat more extended/later peak concentration | – | – | – | effectively suppressed oxidative stress with a similar efficacy to equivalent molar concentrations of human IL-22 | 338 fold | 396 fold | 4,840 fold | effectively suppressed ER stress | have retained in vitro efficacy | –
